Measured values reported in patent US20100255578A1.

Tests used:
[1] = target: H296-H296 (modified fibronectin fragment in which two H-296's are connected); experiment: ELISA as in Example 34; H296-H296 coated at 3.125 ug/mL in PBS; HRP-labeled FNH3-8
H271-H296 = experiment: ELISA; H271-H296 coated at 16 ug/mL; HRP-labeled FNH3-8, ABTS; blank subtracted
H271-H296, sequence (chain, as listed by the source limits assumed): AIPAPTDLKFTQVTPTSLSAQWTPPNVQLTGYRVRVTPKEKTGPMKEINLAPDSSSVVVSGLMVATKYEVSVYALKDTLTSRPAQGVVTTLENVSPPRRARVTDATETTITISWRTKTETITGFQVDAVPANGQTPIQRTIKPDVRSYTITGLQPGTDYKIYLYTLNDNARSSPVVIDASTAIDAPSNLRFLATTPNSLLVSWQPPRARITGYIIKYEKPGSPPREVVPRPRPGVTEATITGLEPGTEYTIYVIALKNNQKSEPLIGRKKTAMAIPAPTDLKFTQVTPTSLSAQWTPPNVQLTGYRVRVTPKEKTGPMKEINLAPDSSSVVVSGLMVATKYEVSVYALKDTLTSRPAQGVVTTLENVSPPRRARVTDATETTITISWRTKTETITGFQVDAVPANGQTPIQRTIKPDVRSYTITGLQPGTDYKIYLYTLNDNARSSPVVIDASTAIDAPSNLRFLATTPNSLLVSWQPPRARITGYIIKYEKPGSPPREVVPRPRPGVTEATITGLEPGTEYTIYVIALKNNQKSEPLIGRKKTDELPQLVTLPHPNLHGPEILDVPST

FNH3-8 antibody (manufactured by TAKARA BIO INC.) labeled with HRP
absorbance at 405 nm [1]: 1.01
405 nm (Found Value - Blank) (H271-H296): 0.594
